According to patent publication US9631180B2, “Recombinant manganese oxidase” (OREGON HEALTH & SCIENCE UNIVERSITY, priority 2013, dated 2017):

Tests used:
Bacillus subtilis CotA = details: described in Durão P et al, 2008; cited from earlier work
B. licheniformis CotA = details: described in Koschorreck K et al, 2008; cited from earlier work
[1] = Mn(II) oxidation kinetics, leucoberbelin blue (LBB) quench assay; type: biochemical
Description: (§1) Kinetic experiments were performed on the Molecular Devices SpectraMax® M2 microplate reader spectrophotometer at 22° C. with purified protein. […] Reactions were carried out with 10 μg Mnx (final 240 nM) 100 mM in phosphate-citrate buffer pH 3-8 and 20 mM CHES, HEPES, and MES at pH 7-10. Dimethoxyphenol (DMP) oxidation was followed by measuring the increase in absorbance at 468 nm and ε=49.6 mM-1 cm-1. These assays were performed in at least two independent trials in triplicate. Fe(II) (ferrous ammonium sulfate) oxidation was measured by quenching 200 μl reactions with 50 μl of the Fe(II) chelating colorimetric assay FerroZine® (15 mM) and a ferrous ammonium sulfate standard curve, noting the absorbance at 570 nm. Fe(II) oxidation reactions were performed with 10 μg recombinant Mn oxidase complex in 100 mM Na acetate-acetic acid buffer (pH 4-5.5). Mn(II) (MnCl2) oxidation in 20 mM HEPES (pH 7-8.5) was measured by quenching 5 μl of 200 μl reactions with 195 μl leucoberbelin blue (LBB) colorimetric reagent and reading the absorbance at 618 nm. Working LBB reagent was prepared by diluting concentrated stock (100 mg LBB in 25 ml 0.4% NaOH) 1:10 into 1% acetic acid. A KMnO4 standard curve was used to determine MnO2 oxide equivalent concentration. The metal substrate assays were performed in five independent trials then the high and low values were discarded from each concentration. The linear part of each curve was fit plotted and fit with a linear regression in GraphPad Prism®. These slopes were converted to the appropriate kinetic units, plotted, and fit with nonlinear regressions determined by comparing best fit values in the same software. KM and Vmax were determined and reported as KM and kcat=Vmax/[enzyme].

[2] = O2 consumption during Mn oxidation, Clark type electrode; type: biochemical; details: for lag time before O2 consumption is detected: after addition of MnCl2, across all runs
Description: Also indicative of MCOs is the consumption of O2 and its reduction to H2O, terminating electron transfer at the trinuclear Cu center. O2 consumption was measured on a Clark type electrode during Mn oxidation by the recombinant Mn oxidase complex. Following the addition of MnCl2 to the enzyme, there is about a 30 s lag time before O2 consumption is detected across all runs (FIG. 7A). Starting with a higher concentration of MnCl2, results in a faster initial velocity of O2 consumption (FIG. 7B). […] This stoichiometry supports the MCO mechanism of the four electron reduction required to generate 2 mol H2O from 1 mol O2.
Oxygen consumption was measured on a Rank Brothers LTD model 10 electrode with the polarizing voltage set to 630 mV. The 2 ml water-jacketed reaction cell was kept at 37° C. using a water bath. The instrument was calibrated by taking a zero measurement with Ar purged water and a 100% measurement with atmospheric oxygenated water assuming 214 μM O2 at […]. A computer interfaced with the electrode measured 02 every 1 s. Data collection began about 1 min before 10 μL of 1 mg/ml Mnx protein (^˜24 nM final if mass of recombinant Mn oxidase complex is 211 kDa) was added through the 2 mm diameter opening in the cap and allowed to equilibrate with 37° C. 20 mM HEPES pH 7.8 50 mM NaCl. Another minute of baseline reading was taken before adding 10 μL of various concentrations of MnCl2. The data was plotted Time (min) vs. % O2 remaining, if addition of MnCl2 is t=0. The initial O2 consumption velocities of all runs were plotted against starting MnCl2 concentration. Total O2 consumed was calculated by taking the difference of final from initial O2 concentrations then plotted against MnCl2 concentration and fitted with a linear regression, forced through the xy origin.

[3] = Fe(II) oxidation kinetics, FerroZine quench assay; type: biochemical; details: pH 5
Description: as §1, with “Working LBB reagent was prepared by diluting concentrated stock (100 mg LBB in 25 ml 0.4% NaOH) 1:10 into 1% acetic acid. A KMnO4 standard curve was used to determine MnO2 oxide equivalent concentration. The metal substrate assays were performed in five independent trials then the high and low values were discarded from each concentration. The linear part of each curve was fit plotted and fit with a linear regression in GraphPad Prism®.” left out

[4] = 2,6-DMP oxidation kinetics, absorbance at 468 nm; type: biochemical; details: Phosphate-citrate buffer
Description: as §1, with “Working LBB reagent was prepared by diluting concentrated stock (100 mg LBB in 25 ml 0.4% NaOH) 1:10 into 1% acetic acid. A KMnO4 standard curve was used to determine MnO2 oxide equivalent concentration. The metal substrate assays were performed in five independent trials then the high and low values were discarded from each concentration. The linear part of each curve was fit plotted and fit with a linear regression in GraphPad Prism®.” left out

Row | Molecule | Km (Bacillus subtilis CotA) [µM] | kcat (Bacillus subtilis CotA) [s⁻¹] | kcat (B. licheniformis CotA) [s⁻¹] | pH optimum of Mn oxidation [1] | Mn(II) K0.5 ([1]; HEPES dialyzed protein) [µM] | Mn(II) kcat ([1]; HEPES dialyzed protein) [s⁻¹] | Mn(II) K0.5 ([1]; Tris dialyzed protein) [µM] | Mn(II) kcat ([1]; Tris dialyzed protein) [s⁻¹] | lag time before O2 consumption is detected [2] [s] | lag time before O2 consumption is detected ([2]; listed as recombinant Mnx complex) | slope of MnCl2 added vs. O2 consumed ([2]; linear regression forced through the origin, 37° C., HEPES pH 7.8) | Fe(II) kcat [3] [s⁻¹] | Km [3] [µM] | 2,6-DMP oxidation activity [4]
1 | CCn1c(=NN=c2sc3cc(S(=O)(=O)O)ccc3n2CC)sc2cc(S(=O)(=O)O)ccc21 [ABTS, 2,2′-azino-bis(3-ethylbenzthiazoline-6-sulphonic acid)] | 6.5 | 83 | 322 |  |  |  |  |  |  |  |  |  |  | 
2 | recombinant Mn oxidase complex: recombinantly produced Bacillus sp. PL-12 manganese oxidase complex comprising MnxG, MnxE and MnxF, expressed in E. coli (protein, listed as Bacillus sp.) chain 1: HVFHYHVHQWLGDSSNINAEILDAQSISPQTHYSIQPLYGLGSLHGAIGDSIIHCHLYPHFGIGMWGINRVFDTLQDGSQCYPNGVRIDALKPLPDRPAPPKPTREKPGFPNFIPGKVGYKAPRPPLGIVGGREMTELERNAAIPNPRPGAVFVDPCLDQDPVVVEFNVSAIEMPVVYNKQGWHDPKARFYVMDEDLDDILSGKKEPEPLVFHVPAGTCIRMNYTNRMPHILDGDAFQLVTRTYENGFHIHFVKFDVLACDGGNVGWNYDSAVLPGQTIRYEWYAETELKAWFFHDHLF chain 2: MHDSPLKSLSAASNVASVNDPLFDFFNKHMGKQILIITESSQLNILGQTFRPIFCGKVAEVEPGHLTLSPVTIKILNAPFHKFPIPLSIPFEKIAHFTTDVDCSMRIPLV chain 3: MEALFPMSTDYSKMTDVNEIHDSAILEHFRNGIGHKTLVISPSYPYMFVGIIKELIGDTVMIDVETTHFAQLENREWYIHIHNIEVFYIERPGAPKIPKLEDY |  |  |  | 7.8 | 123 ± 7.00 | 16.1 ± 0.941 | 134.6 ± 9.16 | 12.9 ± 0.758 | ~30 | about 30 s | about 0.252±0.0149 | 0.0744 ± 0.00779 | 9 | inactive
